Experiment [1] addresses ChromePure human IgG Fc (human). Briefly: SPR; Biacore 2000; human IgG Fc and human, rabbit, mouse, guinea pig whole IgG amine coupled to CM5 chips (854, 1348, 1094, 857, 1143 RU); gE monomers and gE/gI heterodimers at 750 μg/mL (Bac gE-1 t411 490 μg/mL) flowed at 30 μL/min in 0.01 M HEPES pH 7.4, 0.15 M NaCl, 0.005% P20; one concentration, RU at the end of association and of dissociation. A general note: Surface plasmon resonance follows binding to a sensor surface in real time, without labels.

For experiment [2], the target named is human whole molecule IgG (human). Described as above.
In experiment [3] the target is rabbit whole molecule IgG (rabbit). Described as above.
The target in experiment [4] is human whole molecule IgG (human). The experiment is described as above. The source holds these as a separate data set.
Experiment [5] addresses guinea pig whole molecule IgG (guinea pig). The experiment is described as above.
The target of experiment [6] is ChromePure human IgG Fc (human). The experiment is described as above. This is another data set of the same source.
Experiment [7] has as its target rabbit whole molecule IgG (rabbit). The experiment is described as above. The source holds these as a separate data set.
Experiment [8] deals with gE-2 t417 (HSV-2 strain 333). Briefly: SEC-MALS; Superdex 200, 10 mM HEPES, 150 mM NaCl, pH 7.5, 20 °C, 0.5 mL/min; 200 µg injected; conjugate analysis (protein and carbohydrate). (In gel filtration, larger molecules generally elute earlier.)

Consider 8 substances from paper PMC8879737.

Several values for one entry are separate records, joined by “and”; a condition that tells them apart may be missing. Equal entries are not always repeated. Where two headings read alike, the source gives them in different places.

In the case of gE-2 t24-405/gI-2 t262 (complex), the values for the RU post association in experiment [1], in experiment [2] and in experiment [3] were 95 RU, 136 RU and 142 RU, respectively. The RU post dissociation in experiment [1] came to 6.6 RU; in experiment [2], 12 RU; in experiment [3], 25 RU.

For the substance gE-2 t417/gI-2 t262 (complex), the RU post association in experiment [2] is 52 RU; in experiment [3], 46 RU; in experiment [4] it was 53 RU and 133 RU. Moreover, the RU post dissociation is -2.1 RU in experiment [2] and -1.5 RU in experiment [3].

For the substance gE-2 t405/gI-2 t262 (complex), the figures for the RU post association in experiment [1], in experiment [2] and in experiment [3] were 100 RU, 142 RU and 165 RU, respectively. Moreover, the RU post dissociation in experiment [1] turned out to be 7.7 RU; in experiment [2] it was 14 RU; in experiment [3] it was 34 RU.

In the case of Bac gE-1 t411 (domain or fragment), the RU post association in experiment [1] was 77 RU; in experiment [5], 32 RU; in experiment [2], 147 RU; in experiment [3], 231 RU; in experiment [6], 80 RU; in experiment [4], 157 RU and 145 RU. Besides, the RU post association in experiment [7] was 228 RU and 221 RU. The figures for the RU post dissociation in experiment [5], in experiment [2] and in experiment [3] were 3.3 RU, 32 RU and 75 RU, respectively.

As for gE-1 t419/gI-1 t269 (complex), the RU post association in experiment [1] was determined as 216 RU; in experiment [5], 19 RU; in experiment [2], 232 RU; in experiment [3], 195 RU. The RU post dissociation in experiment [1] turned out to be 137 RU; in experiment [5], 0.8 RU; in experiment [2] it was 189 RU; in experiment [3] it was 170 RU.

gE-1 t419 (domain or fragment): the RU post association was determined as 27 RU in experiment [5], 127 RU in experiment [2] and 188 RU in experiment [3]. For the same substance, the values for the RU post dissociation in experiment [5], in experiment [2] and in experiment [3] were -2.4 RU, -1.9 RU and 0.6 RU, respectively.

Regarding gE-2 t414/gI-2 t262 (complex), the figures for the RU post association in experiment [1], in experiment [2] and in experiment [3] were 53 RU, 79 RU and 75 RU, respectively. The RU post dissociation in experiment [1] is 0.6 RU; in experiment [2] it was -0.4 RU; in experiment [3], -0.6 RU.

Usually stoichiometry N stands for the number of molecules, sites or subunits per partner or assembly. “gI-2 t262 (strain 333) (domain or fragment)” registered a stoichiometry N in experiment [8] of 1.
